We go through one molecule from US5677146A, “Human amyloid protein precursor homolog and kunitz-type inhibitor” (Zymogenetics, Inc., priority 1995, dated 1997).

Common to all, as to assay type: biochemical
The subject of assay [1] is GL Kallikrein (glandular kallikrein). Put plainly: Protease inhibitory activity assay, glandular kallikrein. As to conditions: 1 μM inhibitor; GL kallikrein 1 U/ml; H-D-Val-Leu-Arg-pNA 0.6 mM; 25° C. On the procedure:
H--D--Val--Leu--Arg--pNA
(§1) Abbreviations in Table 2: rec. refers to recombinant, GL kallikrein refer
(§2) to glandular kallikrein, and PL kallikrein refers to plasma kallikrein.
(§3) Inhibition assays were performed in microtiter wells in a total volume of 300 μl in 10 mM NaCl, 50 mM Tris-HCl (pH 7.4), 0.01% TWEEN80 (Polyoxyethylenesorbitan monoleate). The reactions were incubated at 25° C. for ten minutes after which the appropriate chromogenic substrate was added to the final concentration listed in Table 2 and the final reaction was incubated for thirty minutes at 25° C. Amidolytic activity was measured at 405 nm or by fluorescence Em at 460 nm.

A further assay relates to Trypsin. Put plainly: Protease inhibitory activity assay, trypsin. As to conditions: 1 μM inhibitor; trypsin 8 nM; H-D-Val-Leu-Lys-pNA 0.6 mM; 25° C. On the procedure: Trypsin (8 nM) H--D--Val--Leu--Lys--pNA
as §3

The target of a further assay is T1, human Factor XIIa (Homo sapiens, UniProt P00748).
T1 construct: human Factor XIIa (30 nM); purchased Dr. Walt Kisiel, University of New Mexico, Albuquerque, NM
T1 sequence (P00748 20-372 limits assumed): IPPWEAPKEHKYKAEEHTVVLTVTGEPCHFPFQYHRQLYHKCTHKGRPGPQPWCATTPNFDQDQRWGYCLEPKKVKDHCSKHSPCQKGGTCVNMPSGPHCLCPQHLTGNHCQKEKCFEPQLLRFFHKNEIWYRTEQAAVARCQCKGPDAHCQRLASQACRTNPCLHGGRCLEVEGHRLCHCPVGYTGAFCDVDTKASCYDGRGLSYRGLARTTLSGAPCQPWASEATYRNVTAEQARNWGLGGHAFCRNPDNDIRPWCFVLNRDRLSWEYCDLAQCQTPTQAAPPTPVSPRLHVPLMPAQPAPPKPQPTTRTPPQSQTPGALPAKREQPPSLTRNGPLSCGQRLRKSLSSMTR
T1 sequence (P00748 373-615 limits assumed): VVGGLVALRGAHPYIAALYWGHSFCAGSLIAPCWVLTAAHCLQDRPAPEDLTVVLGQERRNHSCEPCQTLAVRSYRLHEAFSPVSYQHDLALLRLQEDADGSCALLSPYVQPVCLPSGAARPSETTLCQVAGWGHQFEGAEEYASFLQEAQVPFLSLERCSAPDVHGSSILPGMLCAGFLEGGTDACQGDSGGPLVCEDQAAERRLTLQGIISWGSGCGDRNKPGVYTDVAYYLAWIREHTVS
Put plainly: Protease inhibitory activity assay, Factor XIIa. The following applies: 1 μM inhibitor; Factor XIIa 30 nM; H-D-Pro-Phe-Arg-pNA 0.6 mM; 25° C. On the procedure:
human Factor XIIa (30 nM)
(§4) H--D--Pro--Phe--Arg--pNA
as §3

The target in a further assay is T2, rec. human Factor VIIa (Homo sapiens, UniProt P08709).
T2 construct: rec. human Factor VIIa; purchased Novo Nordisk A/S
T2 sequence (P08709 61-212 limits assumed): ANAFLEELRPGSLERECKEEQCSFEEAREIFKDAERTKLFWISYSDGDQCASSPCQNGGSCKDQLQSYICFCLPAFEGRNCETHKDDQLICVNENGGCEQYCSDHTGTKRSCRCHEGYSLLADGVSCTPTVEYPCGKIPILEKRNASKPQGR
T2 sequence (P08709 213-466 limits assumed): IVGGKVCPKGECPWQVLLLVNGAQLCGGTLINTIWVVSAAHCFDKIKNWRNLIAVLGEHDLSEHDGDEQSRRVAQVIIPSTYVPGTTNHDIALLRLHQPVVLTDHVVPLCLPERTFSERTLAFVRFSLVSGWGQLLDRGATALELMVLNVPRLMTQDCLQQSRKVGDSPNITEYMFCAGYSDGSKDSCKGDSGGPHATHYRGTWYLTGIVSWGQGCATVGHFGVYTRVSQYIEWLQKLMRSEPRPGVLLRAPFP
Put plainly: Protease inhibitory activity assay, Factor VIIa. The following applies: 1 μM inhibitor; Factor VIIa 300 nM; H-D-Ile-Pro-Arg-pNA 0.6 mM; 25° C. On the procedure: H--D--Ile--Pro--Arg--pNA
as §3

For another assay, the target named is T3, human Factor Xa (Homo sapiens, UniProt P00742).
T3 construct: human Factor Xa (3 nM); purchased Dr. I. Schousboe, Copenhagen, Denmark
The assay can be described thus: Protease inhibitory activity assay, Factor Xa. The following applies: 1 μM inhibitor; Factor Xa 3 nM; MeO-CO-CHA-Gly-Arg-pNA 0.3 mM; 25° C. On the procedure: The reactions were incubated at 25° C. for ten minutes after which the appropriate chromogenic substrate was added to the final concentration listed in Table 2 and the final reaction was incubated for thirty minutes at 25° C. Amidolytic activity was measured at 405 nm or by fluorescence Em at 460 nm.

The next assay relates to Chymotrypsin. Put plainly: Protease inhibitory activity assay, chymotrypsin. As to conditions: 1 μM inhibitor; chymotrypsin 2.5 nM; MeO-Suc-Arg-Pro-Tyr-pNA 0.6 mM; 25° C. On the procedure: MeO--Suc--Arg--Pro--Tyr--pNA
as §3

The next assay deals with T4, Leukocyte Elastase (Homo sapiens, UniProt P08246).
T4 construct: purified at Novo Nordisk A/S; tissue Novo Nordisk A/S (purified there); host or cells: leukocytes
T4 sequence (P08246 30-267): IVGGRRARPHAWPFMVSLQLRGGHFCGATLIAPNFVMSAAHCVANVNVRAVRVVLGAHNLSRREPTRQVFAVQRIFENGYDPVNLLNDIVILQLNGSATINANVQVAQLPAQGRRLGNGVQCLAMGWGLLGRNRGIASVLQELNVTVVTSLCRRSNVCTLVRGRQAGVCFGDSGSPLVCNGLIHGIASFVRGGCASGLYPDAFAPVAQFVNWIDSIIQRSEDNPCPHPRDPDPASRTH
Put plainly: Protease inhibitory activity assay, leukocyte elastase. As to conditions: 1 μM inhibitor; MeO-Suc-Ala-Ala-Pro-Val-pNA 0.6 mM; 25° C. On the procedure: MeO--Suc--Ala--Ala--Pro--Val--pNA
(§5) purified at Novo Nordisk A/S
as §3

Another assay has as its target T5, Cathepsin G (Homo sapiens, UniProt P08311).
T5 construct: purified at Novo Nordisk A/S; tissue Novo Nordisk A/S (purified there); host or cells: leukocytes (by the cited method)
T5 sequence (P08311 21-255): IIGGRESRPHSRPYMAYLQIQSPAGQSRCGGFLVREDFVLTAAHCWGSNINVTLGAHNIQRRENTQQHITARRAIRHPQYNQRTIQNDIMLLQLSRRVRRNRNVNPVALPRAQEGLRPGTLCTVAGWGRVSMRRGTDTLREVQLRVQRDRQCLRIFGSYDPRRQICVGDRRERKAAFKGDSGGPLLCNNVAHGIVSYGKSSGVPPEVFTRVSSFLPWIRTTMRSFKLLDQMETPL
Put plainly: Protease inhibitory activity assay, cathepsin G. The following applies: 1 μM inhibitor; Suc-Ala-Ala-Pro-Phe-pNA 0.6 mM; 25° C. On the procedure: Cathepsin G Suc--Ala--Ala--Pro--Phe--pNA
as §5
(0.6 mM) (SEQ ID NO: 19)
as §3

The target of the next assay is T6, Plasmin (Homo sapiens, UniProt P00747).
T6 construct: Plasmin (10 nM); purchased Kabi
The assay can be described thus: Protease inhibitory activity assay, plasmin. The following applies: 1 μM inhibitor; plasmin 10 nM; H-D-Val-Leu-Lys-pNA 0.6 mM; 25° C. On the procedure:
H--D--Val--Leu--Lys--pNA
as §3

A further assay concerns the target T7, human Factor XIa (Homo sapiens, UniProt P03951).
T7 construct: human Factor XIa (1 nM); purchased Dr. Kazuo Fujikawa, University of Washington, Seattle, WA
Put plainly: Protease inhibitory activity assay, Factor XIa. As to conditions: 1 μM inhibitor; Factor XIa 1 nM; Boc-Glu(OBzl)-Ala-Arg-MCA 0.12 mM; 25° C. On the procedure:
Boc--Glu(OBzl)--Ala--Arg--MCA
as §3

The target of a further assay is T8, Urokinase (Homo sapiens, UniProt P00749).
T8 construct: purchased Serono, Freigung, Germany
Put plainly: Protease inhibitory activity assay, urokinase. The following applies: 1 μM inhibitor; urokinase 5 nM; <Glu-Gly-Arg-pNA 0.6 mM; 25° C. On the procedure: as §3

In assay [2] the target is T9, rec. Protein Ca (activated protein C) (Homo sapiens, UniProt P04070).
T9 construct: purchased Novo Nordisk A/S
The assay can be described thus: Protease inhibitory activity assay, activated protein C. The following applies: 1 μM inhibitor; rec. Protein Ca 5 nM; <Glu-Pro-Arg-pNA 0.6 mM; 25° C. On the procedure: as §3
r.h. refers to recombinant human, h. refers to human, protein Ca refers t
activated protein C; APPH refers to the KunitzType inhibitor domain of […]

The target in assay [3] is T10, PL Kallikrein (plasma kallikrein) (Homo sapiens, UniProt P03952).
T10 construct: purchased Kabi
Put plainly: Protease inhibitory activity assay, plasma kallikrein. As to conditions: 1 μM inhibitor; PL kallikrein 3 nM; H-D-Pro-Phe-Arg-pNA 0.6 mM; 25° C. On the procedure: as §4, §1, §2, §3

T7 sequence (P03951 19-387 limits assumed): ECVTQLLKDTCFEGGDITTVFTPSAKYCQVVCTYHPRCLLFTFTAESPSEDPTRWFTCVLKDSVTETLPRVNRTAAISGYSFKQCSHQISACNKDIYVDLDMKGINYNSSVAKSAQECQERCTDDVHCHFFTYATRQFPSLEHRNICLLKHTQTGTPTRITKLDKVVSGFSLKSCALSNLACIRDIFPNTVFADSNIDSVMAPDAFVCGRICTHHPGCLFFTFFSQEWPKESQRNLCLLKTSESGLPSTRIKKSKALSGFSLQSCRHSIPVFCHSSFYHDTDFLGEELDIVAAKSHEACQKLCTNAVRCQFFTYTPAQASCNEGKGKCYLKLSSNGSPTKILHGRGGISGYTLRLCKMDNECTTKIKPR
T7 sequence (P03951 388-625 limits assumed): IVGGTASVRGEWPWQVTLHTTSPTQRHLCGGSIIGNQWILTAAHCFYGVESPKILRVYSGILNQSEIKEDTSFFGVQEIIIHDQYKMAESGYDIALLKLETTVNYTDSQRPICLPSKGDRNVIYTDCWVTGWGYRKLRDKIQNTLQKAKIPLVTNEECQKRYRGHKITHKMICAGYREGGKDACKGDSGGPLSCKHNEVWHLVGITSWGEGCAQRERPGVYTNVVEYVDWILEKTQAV
T9 sequence (P04070 43-197 limits assumed): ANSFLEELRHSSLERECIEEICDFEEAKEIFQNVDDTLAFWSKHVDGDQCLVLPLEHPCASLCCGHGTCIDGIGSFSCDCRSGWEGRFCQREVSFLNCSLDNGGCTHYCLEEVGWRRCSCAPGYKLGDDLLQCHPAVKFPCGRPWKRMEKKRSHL
T9 sequence (P04070 212-461 limits assumed): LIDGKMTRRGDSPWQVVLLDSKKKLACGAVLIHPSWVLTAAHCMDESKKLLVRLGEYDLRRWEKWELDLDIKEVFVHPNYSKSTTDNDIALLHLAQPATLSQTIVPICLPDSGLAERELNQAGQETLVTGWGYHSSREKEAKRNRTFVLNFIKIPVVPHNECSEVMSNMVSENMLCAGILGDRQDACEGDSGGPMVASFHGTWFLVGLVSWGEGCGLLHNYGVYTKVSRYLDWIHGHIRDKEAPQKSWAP
T6 sequence (P00747 97-580 limits assumed): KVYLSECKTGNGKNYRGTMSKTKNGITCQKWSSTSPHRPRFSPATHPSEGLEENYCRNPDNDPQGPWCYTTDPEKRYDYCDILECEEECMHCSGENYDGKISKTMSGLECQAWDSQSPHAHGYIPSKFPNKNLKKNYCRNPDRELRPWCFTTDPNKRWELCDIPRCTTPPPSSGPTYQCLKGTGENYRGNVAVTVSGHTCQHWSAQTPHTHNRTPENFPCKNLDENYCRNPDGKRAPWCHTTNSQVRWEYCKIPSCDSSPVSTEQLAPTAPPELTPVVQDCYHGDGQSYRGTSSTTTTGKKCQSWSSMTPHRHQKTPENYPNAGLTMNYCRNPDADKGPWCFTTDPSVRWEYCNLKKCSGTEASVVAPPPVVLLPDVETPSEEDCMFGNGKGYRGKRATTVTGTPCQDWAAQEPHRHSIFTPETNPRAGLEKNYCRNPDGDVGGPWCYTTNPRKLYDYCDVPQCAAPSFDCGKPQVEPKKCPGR
T6 sequence (P00747 581-810 limits assumed): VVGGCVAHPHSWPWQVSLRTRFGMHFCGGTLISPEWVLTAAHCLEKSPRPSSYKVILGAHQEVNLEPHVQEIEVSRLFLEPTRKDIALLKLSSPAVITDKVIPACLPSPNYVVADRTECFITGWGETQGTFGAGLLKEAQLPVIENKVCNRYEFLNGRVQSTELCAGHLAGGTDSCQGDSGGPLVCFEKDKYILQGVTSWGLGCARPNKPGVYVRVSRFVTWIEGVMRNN
T10 sequence (P03952 20-390 limits assumed): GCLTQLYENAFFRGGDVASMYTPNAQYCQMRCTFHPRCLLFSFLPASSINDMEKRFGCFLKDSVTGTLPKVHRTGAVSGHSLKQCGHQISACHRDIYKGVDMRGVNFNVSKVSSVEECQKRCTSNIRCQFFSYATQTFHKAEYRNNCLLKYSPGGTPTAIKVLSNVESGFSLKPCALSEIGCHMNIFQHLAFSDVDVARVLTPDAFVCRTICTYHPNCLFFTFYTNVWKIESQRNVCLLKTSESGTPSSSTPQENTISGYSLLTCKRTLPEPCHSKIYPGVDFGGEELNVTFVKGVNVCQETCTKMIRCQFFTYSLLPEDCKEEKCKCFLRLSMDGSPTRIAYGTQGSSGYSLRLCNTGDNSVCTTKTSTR
T10 sequence (P03952 391-638 limits assumed): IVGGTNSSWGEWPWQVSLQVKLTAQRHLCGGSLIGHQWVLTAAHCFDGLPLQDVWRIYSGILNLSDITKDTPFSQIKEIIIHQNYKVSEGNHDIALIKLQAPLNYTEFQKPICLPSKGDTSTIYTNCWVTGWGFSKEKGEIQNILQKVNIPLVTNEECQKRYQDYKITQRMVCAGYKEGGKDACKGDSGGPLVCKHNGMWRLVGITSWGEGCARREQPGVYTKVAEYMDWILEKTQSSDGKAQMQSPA
T3 sequence (P00742 41-179 limits assumed): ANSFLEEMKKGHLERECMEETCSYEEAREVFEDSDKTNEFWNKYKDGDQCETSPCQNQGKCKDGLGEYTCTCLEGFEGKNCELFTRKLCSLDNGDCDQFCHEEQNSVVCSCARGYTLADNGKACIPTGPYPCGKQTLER
T3 sequence (P00742 235-488 limits assumed): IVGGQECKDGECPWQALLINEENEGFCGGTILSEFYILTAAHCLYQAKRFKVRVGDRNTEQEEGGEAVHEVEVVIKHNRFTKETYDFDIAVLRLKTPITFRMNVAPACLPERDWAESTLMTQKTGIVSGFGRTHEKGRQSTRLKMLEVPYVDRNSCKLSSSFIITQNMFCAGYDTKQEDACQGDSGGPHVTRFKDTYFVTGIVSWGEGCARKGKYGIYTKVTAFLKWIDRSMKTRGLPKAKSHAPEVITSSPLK

B1: APPH: Kunitz-type inhibitor domain of the human amyloid protein precursor homologue (SEQ ID NO:2 region 53/56/57-110), expressed in yeast (protein)
chain: GYIEALAANAGTGFAVAEPQIAMFCGKLNMHVNIQTGKWEPDPTGTKSCFETKEEVLQYCQEMYPELQITNVMEANQRVSIDNWCRRDKKQCKSRFVTPFKCLVGEFVSDVLLVPEKCQFFHKERMEVCENHQHWHTVVKEACLTQGMTLYSYGMLLPCGVDQFHGTEYVCCPQTKIIGSVSKEEEEEDEEEEEEEDEEEDYDVYKSEFPTEADLEDFTEAAVDEDDEDEEEGEEVVEDRDYYYDTFKGDDYNEENPTEPGSDGTMSDKEITHDVKAVCSQEAMTGPCRAVMPRWYFDLSKGKCVRFIYGGCGGNRNNFESEDYCMAVCKAMIPPTPLPTNDVDVYFETSADDNEHARFQKAKEQLEIRHRNRMDRVKKEWEEAELQAKNLPKAERQTLIQHFQAMVKALEKEAASEKQQLVETHLARVEAMLNDRRRMALENYLAALQSDPPRPHRILQALRRYVRAENKDRLHTIRHYQHVLAVDPEKAAQMKSQVMTHLHVIEERRNQILSLLYKVPYVAQEIQEEIDELLQEQRADMDQFTASISETPVDVRVSSEESEEIPPFHPFHPFPALPENEDTQPELYHPMKKGSGVGEQDGGLIGAEEKVINSKNKVDENMVIDETLDVKEMIFNAERVGGLEEERESVGPLREDFSLSS
B1: the “% Inhibition, GI Kallikrein” value in [1] is 97%. Further, the “% Inhibition, Trypsin” value in the assay on Trypsin is 99.6%. Moreover, the “% Inhibition, h. Factor XIIa” value with human Factor XIIa was 6%. Moreover, in the assay with rec. human Factor VIIa, the “% Inhibition, r.h. Factor VIIa” value is 15%. Besides, in the assay with human Factor Xa, the “% Inhibition, h. Factor Xa” value was 0%. Also, in the assay on Chymotrypsin, the “% Inhibition, Chymotrypsin” value is reported as 61%. Further, the “% Inhibition, Leukocyte Elastase” value in the assay with Leukocyte Elastase was determined as 4%. Moreover, the “% Inhibition, Cathepsin G” value in the assay with Cathepsin G was 0%. Besides, in the assay with Plasmin, the “% Inhibition, Plasmin” value is given as 77%. Besides, in the assay with human Factor XIa, the “% Inhibition, h. Factor XIa” value was 99.8%. Further, the “% Inhibition, Urokinase” value with Urokinase was determined as 2%. The “% Inhibition, r.h. Protein Ca” value in assay [2] is reported as 0%. In addition, in assay [3], the “% Inhibition, PL Kallikrein” value worked out at 69%.
